In the DeepSol protein solubility set:

Assay: soluble on expression in E. coli; label from the status in PepcDB or PDB records

Soluble on expression in E. coli, not soluble:
MGSDKIHHHHHHMLSGENKMLDIDKSTVDFLVTENMVQEVEKVLSHDVPLVHAIVEEMVKRDIDRIYFVACGSPLNAAQTAKHLADRFSDLQVYAISGWEFCDNTPYRLDDRCAVIGVSDYGKTEEVIKALELGRACGALTAAFTKRADSPITSAAEFSIDYQADCIWEIHLLLCYSVVLEMITRLAPNAEIGKIKNDLKQLPNALGHLVRTWEEKGRQLGELASQWPMIYTVAAGPLRPLGYKEGIVTLMEFTWTHGCVIESGEFRHGPLEIVEPGVPFLFLLGNDESRHTTERAINFVKQRTDNVIVIDYAEISQGLHPWLAPFLMFVPMEWLCYYLSIYKDHNPDERRYYGGLVEY, MGSDKIHHHHHHMLSRTASELYWMARYLERAESLARVLDVTYKLSMMPRHSQQQHDLALPLNLTMTHELFQQRYAHFSMNNLLNFFALDSENPSSIYNCIEMAWNNAHAVRGSLSSEVWECINTTRIDIRNLRHQGVDNIGINEFFDWVKERSHLFRGAMFGTLLRNDAQCFIRIGTLIERACATAQLLNVKHQQLHNDPDPVREYYRLDTLLRAVSAREAYHSIYRQPISPETVTELLVLREDVPRSLHACVGDLVLQLEAIGSQRAKVPHRLAHLLHVELRFSTLDDVLAQDLPTYLNNFIIKINELADSIRHTYLEAL, MGSDKIHHHHHHMLTASSITLQFASKPLFENVNVKFGDGNRYGLIGANGSGKSTFMKILAGELEPTAGNVSLDPGERMAWLRQDQFGYEDQRVLDVVMQGHVEMWRVMQEKDAIYMNPEASEEDYLRAAELEGKFGELGGYDAEARAGELLLGVGIPTEQHQGTMSQIAPGFKLRVLLAQALFSKPDILLLDEPTNNLDINTIRWLEQVLNESNATIVVISHDRHFLNQVCTHMADLDYGTIKVWPGNYDDYMLASSEAKARQAAANARAKDKVAELQEFVRRFSANKSKARQATSRMKMIDKIKIEDFKPSSRQNPYIRFEPEKALHRRALEVENLKFGYDAEPLFTNLGFSLEAGEKLAVIGGNGVGKSTLMKLLMGELTPAYGEIRWSENANVGYFSQDHVADFDMDLNLTDWMHQWTQAGDDEQVLRGILGRLLFSGDDVKKSVRVLSGGEKGRMLYGKLMLGRHNVLVMDEPTNHMDMESIESLNLALELFKGTLIFVSHDRQFVSSLATRILEITPQGVEFYMGNYDEYLHSKGLE, MGSDKIHHHHHHMLTDMQRDSASSSTVTTEQIVYGALPLTTINEPECRAIAITSINGSATLSGVSGPMGDQTDADLLIQLRGWADAIVVGAETARKENYGPVVLPHGIKNQRQKLGRCGLPKLTLLSKSLYFDFSSELFSPDLPSELSPLVITQQPANNSEQWDQRLQKLIDVGVEVIVAPTSTNPLKIAFDALHARRLKKISIEGGPSVYRQALSLGIVDRLHLTIAPNIICPVESPLFGKISDDSFTTRLVLEMLSSSPNGLIFSRYKVIRDTLGNPTQ, MGSDKIHHHHHHMMFESHSQIISAAEELLTKRYGGSQSLTDWDRLAGSGAAVVLRARVASSPFFPNRSVVVKYIPPTGRLIDESTLMREVVSYQFTTSLNADVRPGPVLLAYDVEQHLLVISDSGDGDTFAELLERHENDVRIGILRNLGEAIGKLHVGTAAKEQDFNILLHRMLVKHPEVQPMHGFRERLLRLNIGVGITLVEQAGITVPDVVKSFAQEAMRRLVTGQHRAFTPFDLSPDNIIVADRTEFLDYEWAGFRDAAFDVASVIAGFPQYLFARPVSDAEADIFIESWVQQVGDMWPNVRNTPRLHARILTALIGWAFSSVTMMYLGSSSEAYEELFHKIGTEKATAFDVEEIVKEIAATGDILLGTFVPETSEDADLVALLRQDLYETFEALNRFAQRESDTRFPVVADFAQAVVDLLTDDESTE, MGSDKIHHHHHHMMIQYPKLTISDRLNQHRERLPLADLQETFKESWTVNEKWQVTFAITDSLAYEQAIKLLDVQNIVHYDGQSYVIIQCTKTVSGGVSVYEVTASHLFYRLANNARQNNVKTGTLTYGLSEAVNFMLDNNDQGLTAKFIGDFPRIKIENLGNSSFNKFLQDYTSKFDASYVIDNQQIIFYSATYLKHQPVIDTLFYQHDVENVKLSLDTTSLANEVRCLGKPIDKSSGNNDSQTKYQVDFTYRDDASIQKWGLQRGDPLSDERFTDQGSMTEYARQTVQAQPIATLTTTAWNVTIKQCETVKLVMPNLDWQTTVALNGYERNPFNQFSLPTITFDNASLAVNDINVAMFKHITNAHNHVGKTMVQLMAALGDIQNGDLITDEDTIDKLNELGGIS, MGSDKIHHHHHHMMLQIPDVLSKAQVAQCRQMMDVADWTDGNATSGHQSALAKRNMQLPEGSPVARQIGDLIQDALGANATFFSAALPLKVFPPLFNRYEGGQAFDNHVDNAIRYLRGTGFRVRSDLSATLFLTEPQDYDGGELVIEDTYGQHRVKLPAGYMVLYPATSLHHVTPVTRGARVSSFFWIQSMVRDEGQRALLFELDTRIQQVAEEMGQKDSGVVGLTGVYHNLLRRWADA, MGSDKIHHHHHHMMPNPLLDIRIGTMVRANLEDPAAYVRQILPLGFESIQPFFWQTLGGKDLPRLAGEIREAIGDADVVVSSLGVFGNPLESGEVDRGVLAAWETVIDNAHLFGASMVSGFTGRLRGKKLTDSLPRFREVWGPLAKRAADKGVRIAFENCAMDGNWAVGDWNIAHNPDAWELMFNELPDDNLGLEWEPCHQLVYLIDPIPQIRKWAPRIFHVHGKDATVRWDVIREHGVFGRLPFVQMRTPGFGDSDWTRVISELRLAGYKGAIDIEGWHDPVYRDDLEITGQARALEYLKQCRGGASYLQNPT, MGSDKIHHHHHHMNAAENGLIPGAANSAGTKAYVARFAGTLADEHFSDFLNTRIKLSSLGVGTFPGGVDDVTDVAVAAIVARALQSGINVVDTGANYRLGRAGRAVGVGIAKAIAAGIQREEFFVVGKGGFLTFPDGRPEDPLTFFREEVAAKGLGKEEDLAQGVHCLSPEYIAWQLDTLRAQTGLGTLDVFLVDQPEVHIPLIGKEQMYRKLTDVFTMLEAAVQANKIRYYGISTFNACRVETDNTLFQSLTSLIGLAEKAAGQGNRHHLRVVQLPFNALMPEAYTRFSQVTGQGNIGSTIQAAFQLKLTIMASHPLGKGLLAREEVPSLQEAMPELADAAQRAIQFVRSTPGIGVTLVGLSTPLHLPDFLAVARQLPLSKERYLAMFEKEQ, MGSDKIHHHHHHMNAIAKHKENLLLDGFTIIDDIYSDEEVQQILAVIENADMSNETFRKSSDLFAIRQFLKEIPEAKELIYNKNLKKVGAELFGTDFFTVKSIYFDKPETSNWYVAYHQDLTISVDTKIDLAGFGPWTVKQNQFAVQPPLEILKNIFTIRIHLDDTNEENGALKVVPGSHAKNIYRPETIDWSVEKEISCNVKKGGIMIMKPLLLHSSGRTTNNKKRRVIHIEFSNQELPVELNWAERLN, MGSDKIHHHHHHMNAPAGGLSPALTPEAVADTTAMATETHILNPRFYTTDFDELDRVDVTPVRKDWDALIAEMKADPNKAHFKKTEAWDRIDWDGMDPALRVEFIDFLVSSCTAEFSGCVLYKEMKRRGSNPDIRELFNYMARDEARHAGFINDALREAGVAVNLGFLTKAKKYTYFRPKFIYYATYLSEKIGYARYITIYRHLEANPEHRFHPIFKWFKEWCNDEFRHGEAFALLMKTDPKLTDTTVNRLWIRFFLTAVYSTMWVRDHARPEFHKALGVDIDWYDQEVYRKTSEIARQIFPVELDIDHPRWKPALRRMNEAFLRIDRGTRRGGIAGRLEKALGGAQALAAFVSLYTIPVRTHTLPENVRLEPSY, MGSDKIHHHHHHMNAVTIFVHGFNGNADSTDHLIHGAQKNGWAQKMLVVKIKNDGAMDFDGELDQQVANPMVQVLFENNRAPERRQVSWMHQLLIKLRQSFGVEQYNGVGHSLGSNVLVNLAIKFGKDSRLPALKKLVTIAGPFNGLHGFLSQDTVKDVMTKSWEPNKRTHHFKKLVRNRHLFPKGAEVLNVIGSVDGILNNDVYVAVDSARAVGYLLDGVAAKVSELMVIGPDGYHCELNRSQNVSREINQFLWDEKYIAQDFKLINSYRADKVYQLAPEELNWAN, MGSDKIHHHHHHMNDPTFYRDGQGQPIQPDSAREAVAWLTQLMSDSVTEQDRREWQRWREASPDNEQAWQHIESVCANLGQLNARAAHQSLSTLNGMQRRSVLKALAILCLTGGAGMAGSRTDVWQSFTADYQTQVGEQRHAVLEDGTTLLLNTQTALNVAYGDDLRQLTLIRGEVMIETSQVEKAALYPRPFIVTTAQGKVQALGTRFSLRVQDEHTQVAVYDGAVRLHPQRNGQDVQVVKSGQTATFTTQRCGQIETEKAEPAWVKGQLLADNQRLVDFVDELSRYRSGVIRCQPEVESLRFSGVFPLSDTDNILAALAEALPVQVRYFSRYWVQIAAR
